# Source: the nanobody polyreactivity screen of Harvey et al. (2022)
# Assay: yeast display, Sf9 membrane polyspecificity reagent, FACS + sequencing; frameworks hold sequencing errors
# Summary of the method: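 Sorting gates, low and high (top ~1%), were placed on anti-HA fluorescence to track expression and on streptavidin fluorescence to track reagent binding. A clone's polyreactivity label is taken from the gate it came out of. The reagent was 10% biotinylated, detergent-solubilized Sf9 membrane, applied for 1 hour at 4 °C to galactose-induced yeast display cells.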
row,Sequence,polyreactivity (PSR sort gate)
1,QVQLVESGGGLVQAGGSLRLSCAASGFTFQYNAMGWYRQAPGKERELVAGISRSGANTYYADSVKGRFTISRDTAKNTVYLQMNSLKPEDTAVYYCNNLTSRVGPDEYDYWGQGTQVTVSS,high polyreactivity
2,QVQLVESGGGLVQAGGSLRLSCAASGFTFQYYAMGWYRQAPGKERELVAAISWSGDSTYYADSVKGRITISRENAKNSVYLQMNSLKPEDTAVYYCAVYYTRGYDYWGQGTQVTVSS,high polyreactivity
3,QVQLVESGGGLVQAGGSLRLSCAASGFTFQYYSMGWYRQAPGKERELVAAISSSGGSTYYADSVKGRFTISRDNAENTVYLQMNSLKPEDTAVYYCAIRVSTYGFSGYDYWGQGTQVTVSS,high polyreactivity
4,QVQLVESGGGLVQAGGSLRLSCAASGFTFRANGMGWYRQAPGKERELVATITSGGTTNYADSVKGRFTISRDNAKITVYLQMNSLKPEDTAVYYCAKAFRHSTFFAPYDYWRQGTQVTVSS,low polyreactivity
5,QVQLVESGGGLVQAGGSLRLSCAASGFTFRAYAMGWYRQAPGKERELVAAITRSGVSTYYADSVKGRFTISRDNAKNTVYLQMNSLKPEDTAVYYCAAVAQRVGRSGTIEGDSWGQGTQVTVSS,high polyreactivity
6,QVQLVESGGGLVQAGGSLRLSCAASGFTFRFYAMGWYRQAPGKERELVATISSRGGRTYYADSVKGRFTISRDNAKNTVYLQMNSLKPEDTAVYYCNKDLYRYPGYDYWGQGTQVTVSS,high polyreactivity
7,QVQLVESGGGLVQAGGSLRLSCAASGFTFRGYAMGWYRQAPGKERELVAAITSRGGTTYYADSVKGRFTISRDNAKNTVYLQMNSLKPEDTAVYYCATTGGYTRGIGWYNYWGQGTQVTVSS,high polyreactivity
8,QVQLVESGGGLVQAGGSLRLSCAASGFTFRINAMGWYRQAPGKERELVAVITGSGTSTYYADSVKGRFTISRDNAKNTVYLQMNSLKPEDTAVYYCAKRGFISQKYYYWGQGTQGTVSS,high polyreactivity
9,QVQLVESGGGLVQAGGSLRLSCAASGFTFRIYAMGWYRQAPGKERELVAAITSGGRTYYADSVKGRFTISRDNAKNTVYLQMNSLKPEDTAVYYCAALYFTRDRYDYWGQGTQVTVSS,high polyreactivity
10,QVQLVESGGGLVQAGGSLRLSCAASGFTFRKNDMGWYRQAPGKERELLAAISSGGGRTYYADSVKWRFTISRDNAKNTVYLQMNSLKQEDTAVYYCNADDGYYVGLSSAIYDYCGQGTQVTVSS,high polyreactivity
11,QVQLVESGGGLVQAGGSLRLSCAASGFTFRLYDMGCYIQAPGKERELVAAISIRGGRTYYADSVKGRFTISRDNAKNTVYLQMNSLKPEDTAVYYCAAYSQYLKRDYWGQGTQVTVSS,high polyreactivity
12,QVQLVESGGGLVQAGGSLRLSCAASGFTFRNNAMGWYRQAPGKERELVAAISYSGGSTYYADSVKGRFTISRDNAKNTVYLQMNSLKPEDTAVYYCNPRRWSYLEYDYWGQGTQVTVSS,low polyreactivity
13,QVQLVESGGGLVQAGGSLRLSCAASGFTFRRNVIGWYRQAPGKERELVAAIRGSDGSTYYADSVKGRFTNSRDNAKNTVYLQMNSLKPEDTAVYYCNVVGIGLYRKMGYWGQGTQVTVSS,high polyreactivity
14,QVQLVESGGGLVQAGGSLRLSCAASGFTFRRYAMGWYRQAPGKERELVAAISLRSGRTNYADSVKGRFTISRDNAKNTVYLQMNSLKPEDTAVYYCAAGLYGKRAGTSYGYDYWGQGTQVTVSS,high polyreactivity
15,QVQLVESGGGLVQAGGSLRLSCAASGFTFRRYAMGWYRQAPGKERELVAAISRGSSTYYADSVKGRFTISRDNAKNTVYLQMNSLKPEDTAVYYCAADWEQLRGTMDYWGQGTQVTVSS,high polyreactivity
16,QVQLVESGGGLVQAGGSLRLSCAASGFTFRRYAMGWYRQAPGKERELVAAISTSGGRTYYADSVKGRFTISRDYAKITVYLQMNSLKPEDSAVYDCNAAGGYRTSPSDYWGQGTQVTVSS,high polyreactivity
17,QVQLVESGGGLVQAGGSLRLSCAASGFTFRSNAMGWYRQAPGKERELVAAISYSGDSTYYADSVKGRFTISRDTAKNTVYLQMNSLKPEDTAVYYCAADGYDQWGRVGVYLIWTSYDYWGQGTQVTVSS,high polyreactivity
18,QVQLVESGGGLVQAGGSLRLSCAASGFTFRSNAMGWYRQAPGKERELVAAISYSGGDTYYADSVKGRFTISRDNAKNTVFLQMNSLKPEDTAVYYCAADDPASPLGEYWGQGTQVTVSS,low polyreactivity
19,QVQLVESGGGLVQAGGSLRLSCAASGFTFRSNVMGWYRQAPRKERELVAAIRWSGGSTYYADSVKGRFTISRDNAMNTVYLQMNSLKPDDTAVYYCNARIYRSGYKFNYWGQGTQVTVSS,high polyreactivity
20,QVQLVESGGGLVQAGGSLRLSCAASGFTFRTYAMGWYRQAPGKERELVAGISQGGGSTYYADSVKGRFTISRDNAKNTVYLQMKSLKTEVTAVYYCAKARNSNARFGYWGQGTQVTVSS,high polyreactivity
21,QVQLVESGGGLVQAGGSLRLSCAASGFTFRVNAMGWYRQAPGKERELVARISSSGGITYYADSVKGRFTISRDNAKNTVYLQMNSLKPEDTAVYYCAKEVYSGYSTRARSRYYEYYYWGQGTQVTVSS,high polyreactivity

row,Sequence,polyreactivity (PSR sort gate)
1,QVQLVESGGGLVQAGGSLRLSCAASGFTFRVNAMGWYRQAPGKESELVAAISSGGGITYYADSVKGRFTISRDNAKNTVYLQMNSLKPEDTAVYYCAARENRYLERDYWGQGTQVTVSS,low polyreactivity
2,QVQLVESGGGLVQAGGSLRLSCAASGFTFRVYAMGWYRHAPGKERELVAAITKRGGSTYYADSVKGRFTISRDNAKNTVYLQMNSLKPEDTAVYYCAAVNVRHFSYWGQGTQVTVSS,high polyreactivity
3,QVQLVESGGGLVQAGGSLRLSCAASGFTFRVYAMGWYRQAPGKERELVAAISKSGGSTYYADSVKGRFTISRDNAKNTVYLQMNSLKPEDTAVYYCAKVSQVRGFYYWGQGTQVTVSS,high polyreactivity
4,QVQLVESGGGLVQAGGSLRLSCAASGFTFRVYAMGWYRQAPGKERELVAAISSGGSTNYADSVKGRFTISRDNAKNTVYLQMNSLKPEDTAVYYCAARTYRWYGPGSYGYWGQGTQVTVSS,high polyreactivity
5,QVQLVESGGGLVQAGGSLRLSCAASGFTFRVYAMGWYRQAPGKERELVAAITKRGGSTYYADSVRGRFTISRDNAKNTVYLQMNSLKPEDTAVYYCATENTPHYASHGYWGQGTQVTVSS,high polyreactivity
6,QVQLVESGGGLVQAGGSLRLSCAASGFTFRWYAMGWYRQAPGKERELVAAITYRGGRTYYADSVKGRFTISRDNAKNTVYLQMNSLKPEDTAVYYCAAKLSLNGRYDYWGQGTQVNVSS,high polyreactivity
7,QVQLVESGGGLVQAGGSLRLSCAASGFTFRWYAMRWYRQAPGKERELVADITRSGDTNYAYSVKGRFTISRDNAKNTVYLQMKSQKPEDTAVYSCAKDWAYRRHWVGFYYWGQGTQVTVSA,low polyreactivity
8,QVQLVESGGGLVQAGGSLRLSCAASGFTFRWYTMGWYRQAPGKERELVASIDWSGGSTYYADSVKGRFTITRDNAKNTVYLQMNSLKAEDTAVYYCNAGSDIFWSASTYGYWGQGTQVTVSS,high polyreactivity
9,QVQLVESGGGLVQAGGSLRLSCAASGFTFRYNAMGWYRQAPGKERELVAAISRSGGRTYYADSVKGRFTISRDNAKNTVYLQMNSLKPEDTAVYYCAAVAARITGYGYWGQGTQVTVSS,high polyreactivity
10,QVQLVESGGGLVQAGGSLRLSCAASGFTFRYYAMGWYRQAPGKERELVAAIRRGGTTNYADSVKGRFTISRDNAKNTVYLQMKSLKPEDTAVYYCNAGRGYSVWASIYNSRPFDYWGQGTQVTVSS,high polyreactivity
11,QVQLVESGGGLVQAGGSLRLSCAASGFTFRYYAMGWYRQAPGKERELVAAISSGGRTNYADSVKGRFTISRDNAKNTVYLQMNSLKPEDTAVYYCAKAQYYYIGDYDYWGQGTQVTVSS,high polyreactivity
12,QVQLVESGGGLVQAGGSLRLSCAASGFTFRYYAMGWYRQAPGKERELVAGISWRGGSTNYADSVKGRFTISRDNAKNTVYLQMNSLKPEDTAVYYCNAVSYSFPIHRVRPTWYDYWGQGTQVTVSS,high polyreactivity
13,QVQLVESGGGLVQAGGSLRLSCAASGFTFRYYAMGWYRQAPGKVRELVASITGGGRTYYADSVKGRFTISRDNAKNTVYLQMNSLKPEDTAVYYCATLVAYRLGSGYDSWGQGTQVTVSS,high polyreactivity
14,QVQLVESGGGLVQAGGSLRLSCAASGFTFRYYSMGWYRQAPGKERELVAAISSGGSTKYADSVKGRFTISRDNAKNTVYLQMNSLKPEDTAVYYCAARVVDGAQPRYVVIINTRYYWGQGTQVTVSS,high polyreactivity
15,QVQLVESGGGLVQAGGSLRLSCAASGFTFRYYVMGWYRQAPGKEGELVAAISWSGGTTYYADSVKGRFTISRDNAKNTVYLQMNSLKPEDTAVYYCAADVYLNRRQRMYFWGQGSQVTVSS,high polyreactivity
16,QVQLVESGGGLVQAGGSLRLSCAASGFTFSAYAMGWYRQAPGKERELVAAIRSSDITYYADSVKGRFTISRDNAKNTVYLQMNSLKPEDTAVYYCAADLGDYYLYYDYEYWGQGTQVTVSS,high polyreactivity
17,QVQLVESGGGLVQAGGSLRLSCAASGFTFSAYAMGWYRQAPGKERELVAAISRRGGSTYYADSVKGRFTISRDTAKNTVYLQMNSVKPEDTAVYYCATDYPPGYDYWGQGTQVSVSS,high polyreactivity
18,QVQLVESGGGLVQAGGSLRLSCAASGFTFSAYAMGWYRQAPGKERELVAAITLRGGSTYYADSVKGRFTISRDNAKNTVYLQMNSLKPEDTAVYYCNADRWTRTEEEVDYWGQGTQVTVSS,low polyreactivity
19,QVQLVESGGGLVQAGGSLRLSCAASGFTFSAYTMGWYRKAPGKERELVAAISWGGGSTFYADSVKGRFTISRDNAKNTVYLQMNSLKPEDTAVYYCNKQYVHPYDYWGQGTQVTLSS,high polyreactivity
20,QVQLVESGGGLVQAGGSLRLSCAASGFTFSDYVMGWYRQAPGKERELVAVITSGSSTYYADSVKGRFTISRDNAKNTVYLQMNSLKPEDTAVYYCNADPDDGYFSDFDYWGQGTQVTVSS,low polyreactivity
